# Source: patent publication US10100129B2, “Antibodies against CD73 and uses thereof” (BRISTOL-MYERS SQUIBB COMPANY, priority 2014, dated 2018)
# T1: CD73 on Calu6 cells (Homo sapiens, UniProt P21589)
# T1 construct: Calu6 (CD73 endogenous expressors; human pulmonary adenocarcinoma cell line); endogenous in cells; host or cells: Calu6, NCI-H292, SK-MEL-24, SNU-C1, NCI-H1437, H2228, HCC15, H2030 and further human tumour lines
# T1 sequence (P21589 27-549): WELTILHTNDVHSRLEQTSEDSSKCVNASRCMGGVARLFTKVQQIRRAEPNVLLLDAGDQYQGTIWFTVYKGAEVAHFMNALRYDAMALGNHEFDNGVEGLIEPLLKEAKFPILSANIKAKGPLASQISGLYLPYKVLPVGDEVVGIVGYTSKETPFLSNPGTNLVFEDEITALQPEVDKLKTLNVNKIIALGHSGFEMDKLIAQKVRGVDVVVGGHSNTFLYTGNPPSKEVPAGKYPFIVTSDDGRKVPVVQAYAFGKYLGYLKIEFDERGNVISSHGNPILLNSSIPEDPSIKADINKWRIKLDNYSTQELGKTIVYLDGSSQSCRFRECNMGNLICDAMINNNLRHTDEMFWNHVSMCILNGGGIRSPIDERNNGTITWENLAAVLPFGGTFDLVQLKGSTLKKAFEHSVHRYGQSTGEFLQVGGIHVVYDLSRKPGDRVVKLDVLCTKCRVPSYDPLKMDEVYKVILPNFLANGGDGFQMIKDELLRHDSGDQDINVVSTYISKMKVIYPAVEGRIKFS
# T2: CD73 on NCI-H292 cells (Homo sapiens, UniProt P21589)
# T2 construct: endogenous in cells; host or cells: NCI-H292
# T2 sequence (P21589 27-549): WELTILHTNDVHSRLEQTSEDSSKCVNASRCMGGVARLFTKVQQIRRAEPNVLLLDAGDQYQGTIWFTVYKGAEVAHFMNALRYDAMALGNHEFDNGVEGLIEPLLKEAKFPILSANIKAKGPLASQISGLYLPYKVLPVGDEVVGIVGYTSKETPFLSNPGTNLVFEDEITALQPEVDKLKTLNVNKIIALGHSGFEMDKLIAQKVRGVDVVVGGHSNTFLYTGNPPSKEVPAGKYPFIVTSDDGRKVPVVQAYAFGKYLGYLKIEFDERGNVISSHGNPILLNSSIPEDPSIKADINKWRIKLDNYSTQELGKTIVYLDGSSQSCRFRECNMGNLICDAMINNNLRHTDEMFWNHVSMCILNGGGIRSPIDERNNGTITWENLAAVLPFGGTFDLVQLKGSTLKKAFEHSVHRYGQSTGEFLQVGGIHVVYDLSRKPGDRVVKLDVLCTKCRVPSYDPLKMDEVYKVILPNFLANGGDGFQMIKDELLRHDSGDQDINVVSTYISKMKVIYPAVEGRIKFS
# T3: CD73 (Homo sapiens, UniProt P21589)
# T3 sequence (P21589 27-549): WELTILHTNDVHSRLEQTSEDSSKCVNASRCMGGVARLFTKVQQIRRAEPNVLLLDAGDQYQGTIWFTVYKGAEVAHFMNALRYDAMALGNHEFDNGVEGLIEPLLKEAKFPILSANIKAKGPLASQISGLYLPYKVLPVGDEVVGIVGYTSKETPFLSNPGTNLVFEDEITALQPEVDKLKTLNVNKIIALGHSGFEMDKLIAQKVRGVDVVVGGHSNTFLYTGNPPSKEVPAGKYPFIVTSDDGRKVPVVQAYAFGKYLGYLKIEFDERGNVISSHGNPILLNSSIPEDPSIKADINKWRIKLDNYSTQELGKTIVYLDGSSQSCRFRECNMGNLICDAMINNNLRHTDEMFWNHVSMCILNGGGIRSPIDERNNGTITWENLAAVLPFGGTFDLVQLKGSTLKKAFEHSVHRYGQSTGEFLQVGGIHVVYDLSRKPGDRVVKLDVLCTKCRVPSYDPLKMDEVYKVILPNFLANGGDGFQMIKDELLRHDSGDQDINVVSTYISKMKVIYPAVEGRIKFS
# Columns and labels:
# CD73 on Calu6 cells = biological target: T1, CD73 on Calu6 cells; experiment: Dual cell line HTRF cAMP assay (Calu-6 and HEK293/A2AR cells); format: cell-based
# Procedure: Inhibition of CD73 Enzymatic Activity in a Dual Cell Line cAMP Assay Homogenous Time Resolved Fluorescence (HTRF) cAMP Assay
# CD73 antibodies were serial diluted with PBS buffer containing 0.2% BSA, and plated 5 μl/well in 384 well white bottom proxiplate (PerkinElmer, Waltham, Mass.). Calu-6 cells were harvested and resuspend in PBS containing 0.2% BSA, then 5 μl of cells (300 cells/well) were added to the plate. The cells were incubated with antibodies for 10 minutes at 37° C. […] The cells were further incubated with AMP for 30 minutes at 37° C. During this time, HEK293/A2AR cells were harvested and diluted to 0.4 million/ml in PBS containing 0.2% BSA. […] HRTF assays were performed using the homogenous time-resolved fluorescence (HTRF) HiRange cAMP detection kit (Cisbio, Bedford, Mass.) by adding 10 μl/well cAMP-conjugated d2 and 10 μl/well europium cryptate conjugated anti-cAMP antibody in lysis buffer according to the manufacturer's instructions. Plates were incubated at room temperature for 60 minutes and Fluorescence Resonance Energy Transfer (FRET) signals (665 and 615 nM) were read using an EnVision plate reader (PerkinElmer, Waltham, Mass.). The FRET signal was calculated as the ratio of signal from the 665 nm (acceptor) and 615 nm (donor) channels and multiplied by 10.000. IC50 and Ymax were measured. […]
# human FcγRs = experiment: SPR binding profile to human FcγRs (panel); details: read-out: binding affinity to all other FcγRs
# Procedure: Binding of the constructs to human FcγRs was measured via SPR. hCD64 and hCD32a-H131 binding data for IgG1.1 and IgG2 molecules were consistent with expected values for the different Fcs. IgG1.1f is the most inert Fc.
# (§1) The binding of antibodies to Fc gamma receptors (FcγRs or FcgRs) was studied using biosensor technologies including Biacore surface plasmon resonance (SPR) and Fortebio Biolayer Interferometry (BLI). SPR studies were performed on a Biacore T100 instrument (GE Healthcare) at 25° C. The Fab fragment from a murine anti-6×His antibody was immobilized on a CM5 sensor chip using EDC/NHS to a density of ˜3000 RU. Various his-tagged FcgRs (7 ug/ml) were captured via the C-terminal his-tag using a contact time of 30 s at 10 ul/min, and the binding of 1.0 μM antibody was evaluated in a running buffer of 10 mM NaPO4, 130 mM NaCl, 0.05% p20 (PBS-T) pH 7.1. FcgRs used for these experiments included CD64 (FcgRI), CD32a-H131 (FcgRIIa-H131), CD32a-R131 (FcgRIIa-R131), CD32b (FcgRIIb), CD16a-V158 (FcgRIIIa-V158), CD16b-NA1 (FcgRIIIb-NA1), and CD16B-NA2 (FcgRIIIb-NA2). BLI experiments were performed on a Fortebio Octet RED instrument (Pall, Fortebio) at 25° C. in 10 mM NaPO4, 130 mM NaCl, 0.05% p20 (PBS-T) pH 7.1. Antibodies were captured out of undiluted expression supernatants on protein A coated sensors, followed by the binding of 1 μM hCD32a-H131, hCD32a-R131, hCD32b, hCD16a-V158, or 0.1 μM hCD64 analytes.
# This engineering strategy was further explored by producing other antibodies formatted with IgG2.3G1-AY, IgG2.3G1-AY-S267E (IgG2.3G1-AY-V27), as well as IgG2-B-form variants (IgG2.5G1-AY and IgG2.5G1-AY-V27), and other hybrid antibodies containing different combinations of IgG1 and IgG2 constant domains, and testing the binding of these antibodies to anti-his Fab captured his-tagged FcgRs using Biacore SPR technology.
# cyno FcγRs = experiment: SPR binding to cyno FcγRs; parameters: species or system cynomolgus; details: read-out: binding affinity to cyno FcγRs
# [1] = SEC-MALS oligomeric state of CD73 mAbs; format: physicochemical
# Procedure: The oligomeric state of CD73 mAbs were examined by size-exclusion chromatography coupled to an in-line multi-angle light scattering detector (SEC-MALS). Isocratic separations were performed on a Shodex PROTEIN KW-803 column connected to an Prominence Shimadzu UFLC in buffer containing 200 mM K2HPO4, 150 mM NaCl, pH 6.8, containing 0.02% Na azide (0.1 μm filtered) running at 0.5 mL/min. Samples were injected onto the column using a SIL-20AC Prominence Shimadzu autosampler, and data were obtained from three online detectors connected in series: a Prominence SPD-20AD diode array UV/vis spectrophotometer followed by a Wyatt miniDAWN™ TREOS Multi-Angle Light Scattering Detector then a Wyatt Optilab T-rEX Refractive Index Detector. Data (as shown in Table 15 below) were collected and analyzed using Astra (Wyatt) and Labsolutions (Shimadzu) software.
# CD73 on NCI-H292 cells = biological target: T2, CD73 on NCI-H292 cells; experiment: Flow cytometry based cross-blocking on NCI-H292 cells; format: binding; details: FITC-labeled 11F11, NCI-H292 cells
# Procedure: The antibodies were also subjected to flow cytometry based cross-blocking. The experiment was conducted as follows using one set of labeled fluorescently labeled antibody and a second set of unlabeled antibody: 100000 NCI-H292 cells were seeded per well. The plate was spun down and the cells were resuspended in 100 uL 2% FBS in PBS per well. The cells were blocked on ice for 20 min. Unlabeled antibody, as indicated, in 2% FBS in PBS was added to each well. […] 6 wells of cells were incubated without antibody, and were resuspended in 100 uL 2% FBS in PBS only (for controls). The cells were then incubated on ice for 30 min. The cells were washed twice with 2% FBS in PBS and the samples were resuspended in 140 uL 2% FBS in PBS, and analyzed on a FacsCalibur flow cytometer (Becton Dickinson).
# CD73 = biological target: T3, CD73; experiment: CD73 internalization at 1, 4 or 21 hours by CD73.4 with heavy chain constant region variants (FIG. 31); format: cell-based; parameters: endogenous in cells; details: CD73.4 variable regions with the named constant region
# Procedure: The bars for each antibody are shown in the order of 21 hours (on the left), 4 hours (middle) and 1 hour (right).
# Anti-CD73 antibodies (CD73.4) with the heavy chain constant regions shown in Table 31 were prepared and tested as described above in antibody mediated CD73 internalization assays.
# [2] = test system: hCD32a-H131, hCD32a-R131, hCD32b, hCD16a-V158, hCD64; experiment: Fortebio Octet BLI binding of protein A-captured antibodies to FcgR analytes; parameters: species or system human; details: expression supernatants
# Procedure: as §1
# The next set of constructs was used to engineer effector function into the otherwise effector function negative IgG2 isotype. […]
molecule,measurement,setting,value
Nc1ncnc2c1ncn2[C@@H]1O[C@H](COP(=O)(O)CP(=O)(O)O)[C@@H](O)[C@H]1O [APCP],IC50,CD73 on Calu6 cells; cAMP assay,0.00129 µM
same,Ymax,CD73 on Calu6 cells; percentage of inhibition relative to 100 nM 11F11 set to 100%,97
"IgG2-C219S-G1.1f: effectorless IgG1/IgG2 hybrid constant region: CH1 and hinge from IgG2 (C219S), CH2 and CH3 of IgG1 (A330S/P331S); SEQ ID NO:169",Kd,human FcγRs,< 5 µM
same,Kd,cyno FcγRs,> 5 µM
"7A11: human anti-CD73 monoclonal antibody, IgG1za; VH SEQ ID NO: 88, VL SEQ ID NO: 92 (antibody, V domains shown, Synthetic: 7A11 VH; Synthetic: 7A11 VK1) VH: EVQLVESGGGLVQTGRSLRLSCAASGFTFDDYAMHWVRQAPGKGLEWVSDISWNSDIIGYADSVKGRFTISRDNAKNSLYLQMNSLRAEDTALYYCAKDIYGSGSSFFDYWGQGILVTVSS VL: DIQMTQSPSSLSASVGDRVTITCRASQYISSWLAWYQQKPEKAPKSLIYAASSLQSGVPSRFSGSGSGTDFTLTISSLQPEDFATYYCQQYHSYPPTFGQGTRLEIK",SEC % HMW,[1],0.5%
same,SEC % LMW,[1],0.5%
same,SEC % Monomer,[1],98.5%
same,competition with 11F11 (cross-blocking),CD73 on NCI-H292 cells,competes with 11F11
"IgG2.3/4: CD73.4 with IgG2 constant region with C219S/C220S (protein, Synthetic: IgG2.3/4, CD73.4 with IgG2 constant region with C219S/C220S) ASTKGPSVFPLAPCSRSTSESTAALGCLVKDYFPEPVTVSWNSGALTSGVHTFPAVLQSSGLYSLSSVVTVPSSNFGTQTYTCNVDHKPSNTKVDKTVERKSSVECPPCPAPPVAGPSVFLFPPKPKDTLMISRTPEVTCVVVDVSHEDPEVQFNWYVDGVEVHNAKTKPREEQFNSTFRVVSVLTVVHQDWLNGKEYKCKVSNKGLPAPIEKTISKTKGQPREPQVYTLPPSREEMTKNQVSLTCLVKGFYPSDIAVEWESNGQPENNYKTTPPMLDSDGSFFLYSKLTVDKSRWQQGNVFSCSVMHEALHNHYTQKSLSLSPGK",antibody mediated CD73 internalization (in words),CD73,much reduced internalization compared to IgG2.3 or IgG2.4 alone
"IgG2.3: antibody with IgG2 constant region with C219S (protein, left off: another chain or arm of the molecule, antibody with IgG2 constant region with C219S) constant: ASTKGPSVFPLAPCSRSTSESTAALGCLVKDYFPEPVTVSWNSGALTSGVHTFPAVLQSSGLYSLSSVVTVPSSNFGTQTYTCNVDHKPSNTKVDKTVERKSCVECPPCPAPPVAGPSVFLFPPKPKDTLMISRTPEVTCVVVDVSHEDPEVQFNWYVDGVEVHNAKTKPREEQFNSTFRVVSVLTVVHQDWLNGKEYKCKVSNKGLPAPIEKTISKTKGQPREPQVYTLPPSREEMTKNQVSLTCLVKGFYPSDIAVEWESNGQPENNYKTTPPMLDSDGSFFLYSKLTVDKSRWQQGNVFSCSVMHEALHNHYTQKSLSLSPGK",FcgR binding profile by BLI (in words),[2],appreciable binding to only CD32a-H131
